Patent US20240002500A1 (GUANGDONG FAPON BIOPHARMA, published 2024)
Where a chain is given by its changes, count along the chain named.

T1: hTIGIT-hFc (human, UniProt Q495A1 22-141)
T1 construct: also called antigen protein hTIGIT-hFc; human TIGIT recombinant protein carrying a human Fc tag; not shown: human Fc tag
T1 sequence (looked up): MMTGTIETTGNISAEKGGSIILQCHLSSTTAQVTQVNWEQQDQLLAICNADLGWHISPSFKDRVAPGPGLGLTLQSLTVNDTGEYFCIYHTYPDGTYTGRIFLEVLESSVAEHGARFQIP

T2: human Tigit extracellular domain recombinant protein hTigit-his (Acrobiosystem, Cat.TIT-H2H3) (human, UniProt Q495A1 22-141)
T2 construct: extracellular domain; Bought; not shown: his tag
T2 sequence (looked up): T1 sequence (looked up)

T3: full-length human TIGIT on cells (human, UniProt Q495A1 22-244)
T3 construct: whole, on cells; The same protein is used for CHO-hTIGIT, PBMC and NK92-hTIGIT; the cells are named under assay; also called CHO-hTIGIT; hTIGIT
T3 sequence (looked up): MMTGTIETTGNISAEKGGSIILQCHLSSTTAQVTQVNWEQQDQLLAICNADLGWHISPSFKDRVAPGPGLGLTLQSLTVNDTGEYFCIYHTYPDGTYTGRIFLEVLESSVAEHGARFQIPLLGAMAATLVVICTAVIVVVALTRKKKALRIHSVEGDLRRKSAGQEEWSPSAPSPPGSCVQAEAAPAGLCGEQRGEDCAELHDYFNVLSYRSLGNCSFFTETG

B1: 3Tigit-16 mouse monoclonal antibody (antibody, V domains shown)
VH: EVQLQQSGPELVKPGASVKMSCKASGFTFTDYFMDWVKQSRGASFEWIGRLNPNNGRTSYNQKFKGKATLTVDKSSSTAYMELNSLTSEDSAVYYCARGDLGRWYFDVWGAGTTVTVSS
VL: QIVLTQSPAIMSASPGEKVTMTCSASSSVSYMHWYQQKSGTSPKRWIYDTSKLASGVPTRFSGSGSGTSYSLTISSMEAEDAASYFCQQWSSNSLTFGAGTKLELKR
notes: Mouse monoclonal antibody from hybridoma
B2: 3Tigit-29 mouse monoclonal antibody (antibody, V domains shown)
VH: EVQLQQSGPELVKPGASVKISCKASGYTFTDYNMHWVKQSLGKSLEWIGYVNSFNGNTGYSQKFKSKVTLTVDRSSRTAYMDLRSLTSEDSAVFYCARSSRGGFAYWGQGTLVTVSA
VL: B1 VL with T59A, G65V, S84T, F86Y
notes: as for B1
B3: 3Tigit-12 mouse monoclonal antibody (antibody, V domains shown)
VH: QVQLQQSGAELVRPGTSVKMSCKAAGYTFTNYWIGWVKQRPGHGLEWIGDIYPGGGYTNYDEKFKGKATLTADTSSRTAYMQLSSLTSEDSAIYHCVNGGYGSTYGYFDVWGAGTTVTVSS
VL: DIVMSQSPSSLPVSVGEKVTMSCKSSQSLLFSSDQKNYLAWYQQKPGQSPKLLIYWASTRESGVPDRLTGSGSGTDFTLTISSVKAEDLAVYYCQQYHKYPFTFGGGTKLEIKR
notes: as for B1
B4: Tigit-5 mouse monoclonal antibody (antibody, V domains shown)
VH: QVQLQQPGAELVRPGASVKLSCKASGYSFTSYWMNWVKQRPGQGLEWIGMIRPSDSETRLNQMFKDKATLTVDKSSSTAYMQLSSPTSDDSAVYYCAGIHDYGHGAYWGQGTLVTVSA
VL: DIQMIQSPASLSVSVGETVTITCRASENIYSNLAWYQQKQGKSPQLLVYAASHLPDGVPSRFSGSGSGTQYSLKINSLQSEDFGSYYCQHFWGTPRTFGGGTKLEIKR
notes: as for B1

target: T1, hTIGIT-hFc; assay: FACS blocking on U2-OS cells; second row of the table; unit from the y axis
Description: U2-OS cells to be detected (human osteosarcoma cells, naturally and highly expressing PVR and CD112 by means of detection) were counted; centrifugated at 300 g for 5 min; resuspended with an FCM buffer; and cell density was adjusted to 4E+06 cell/mL for later use. […] According to an experimental design, in each well, 50 μL of the antigen protein and 50 μL of the cell (the volume of each cell added into a 96-well V-shaped plate being 2E+05 cell/well) were respectively added in the 96-well V-shaped plate; and incubation was performed in dark on ice for 30 min. Centrifugation (300 g/5 min) was performed; supernatant was discarded; 200 μL of the FCM buffer was added for washing once; centrifugation (300 g/5 min) was performed; and the supernatant was discarded. The antibody was added to the 96-well V-shaped plate (in 100 μL/well); and incubation was performed in dark on ice for 30 min. Centrifugation (300 g/5 min) was performed; supernatant was discarded; 200 μL of the FCM buffer was added for washing once; centrifugation (300 g/5 min) was performed; and the supernatant was discarded. Secondary antibodies (APC anti-human IgG Fc, 1:500 dilution) were added to the 96-well V-shaped plate (in 100 μL/well); and incubation was performed in dark on ice for 30 min. Centrifugation (300 g/5 min) was performed; supernatant was discarded; 200 μL of the FCM buffer was added for washing once; centrifugation (300 g/5 min) was performed; and the supernatant was discarded. 100 μL of the 1×PBS was added for resuspending, and on-machine detection was performed.

Compared with B1, B2 is higher in “Span (row head not given)” value: 580 MFI-APC for the first, 585 MFI-APC for the second.

B3 was tested, and the “Span (row head not given)” value was 555 MFI-APC.

target: T2, human Tigit extracellular domain …; assay: BLI epitope binning (ForteBIO QKe), hTigit-his on anti-Penta-HIS sensor; competitor R0300
Description: Epitope competition analysis was performed on an anti-human TIGIT antibody with an MD ForteBIO QKe platform. An experimental method included: a human Tigit extracellular domain recombinant protein hTigit-his (Acrobiosystem, Cat.TIT-H2H3, lot-1336-76GF1-F9) carrying a his tag was diluted with an equilibration buffer (1×PBS+0.02% Tween 20), until the final concentration was 1.5 μg/ml. The anti-human Tigit antibody was diluted with the equilibration buffer (1×PBS+0.02% Tween 20), the final concentration being 5 μg/ml. After an anti-Penta-HIS biosensor (ForteBIO, Cat. 18-5122) was fully hydrated, first the hTigit-his recombinant protein was solidified for 180 seconds, then equilibrated for 30 seconds, and bound to the first anti-human Tigit antibody for 180 seconds, then equilibrated for 30 seconds, and then bound to the second anti-human Tigit antibody, binding time being 300 seconds. The whole reaction was performed at 25° C. and 1000 rpm; and finally, Octet analysis software was used to perform epitope binning analysis.

Compared with B4, B1 is lower in “epitope binning signal (name and unit not given)” value: 0.668 for the first, 0.0157 for the second.

First: B2
Second: B3
The “epitope binning signal (name and unit not given)” value of the first is higher: 0.0254 for the first, 0.0196 for the second.

target: T3, full-length human TIGIT on cells; assay: FACS blocking: antibody on CHO-hTIGIT cells, then hPVR-hFc, PE anti-human IgG Fc; blocked ligand hPVR-hFc
Description: The CHO-engineered cells CHO-hTIGIT cells recombinantly expressing full-length human TIGIT were counted, and centrifugated at 300 g for 5 min, resuspended with an FCM buffer, and cell density was adjusted to 4E+06 cell/mL for later use. […] According to an experimental design, in each well, 50 μL of the antibody and 50 μL of the cell (the volume of each cell added into a 96-well V-shaped plate being 2E+05 cell/well) were respectively added in the 96-well V-shaped plate; and incubation was performed in dark on ice for 30 min. The ligand protein was added to the 96-well V-shaped plate (in 50 μL/well); and incubation was performed in dark on ice for 30 min. Centrifugation (300 g/5 min) was performed; supernatant was discarded; 200 μL of the FCM buffer was added for washing once; centrifugation (300 g/5 min) was performed; and the supernatant was discarded. Secondary antibodies (PE anti-human IgG Fc, 1:500 dilution) were added to the 96-well V-shaped plate (in 100 μL/well); and incubation was performed in dark on ice for 30 min. Centrifugation (300 g/5 min) was performed; supernatant was discarded; 200 μL of the FCM buffer was added for washing once; centrifugation (300 g/5 min) was performed; and the supernatant was discarded. 100 μL of the 1×PBS was added for resuspending, and on-machine detection was performed.

B4 and B1 are the same in “IC50 (read off the curve)” value: ~0.3 nM for the first, ~0.3 nM for the second.

In the case of B2, the “IC50 (read off the curve)” value is reported as ~0.3 nM.

target: T3, full-length human TIGIT on cells; assay: FACS titration on CHO-hTIGIT cells; table under the plot, unit taken from the x axis Log[nM]
Description: The CHO-engineered cells CHO-hTIGIT cells recombinantly expressing full-length human TIGIT to be detected were counted, centrifuged at 300 g for 5 min, resuspended in an FCM buffer and cell density was adjusted to 4E+06 cell/mL for later use. A sample to be detected (including a positive control antibody and a mouse monoclonal antibody) was diluted with the FCM buffer to 20 μg/mL, and then the FCM buffer was used to perform 3× serial dilutions of 12 concentration points; and the isotype control antibody was diluted with the FCM buffer to 20 μg/mL. According to an experimental design, in each well, 50 μL of the antibody and 50 μL of the cell (the amount of each cell added into a 96-well V-shaped plate being 2E+05 cells/well) were respectively added in the 96-well V-shaped plate; and incubation in dark was performed on ice for 30 min. Centrifugation (300 g/5 min) was performed; supernatant was discarded; 200 μL of the FCM buffer was added for washing once; centrifugation (300 g/5 min) was performed; and the supernatant was discarded. […] Centrifugation (300 g/5 min) was performed; supernatant was discarded; 200 μL of the FCM buffer was added once for washing once; centrifugation (300 g/5 min) was performed; and the supernatant was discarded. 100 μL of the 1×PBS was added for resuspending, and on-machine detection was performed.

B4 and B1 are within 1.5-fold of each other in EC50: 0.256 nM for the first, 0.294 nM for the second.

For B2, the EC50 was 0.31 nM.
